In patent publication US20260183411A1, “TARGETING SORTILIN” (priority 2024, published 2026):
Bridges are numbered along the chain shown (N, C = ends). Where no end group is shown, it is not given here. Side-chain parts run from the residue outwards. [ ]: non-standard residue; d: D form. tBuAla = CC(C)(C)C[C@H](N)C(=O)O; Tle = CC(C)(C)[C@H](N)C(=O)O; linker = not defined here; Nle = CCCC[C@H](N)C(=O)O; siRNA = not defined here

T1: Human SORT1 (78-755)-His (human, UniProt Q99523 78-755)
T1 construct: range 78-755; Amine-coupled to CM5 chip for SPR; Two suppliers are named (Acrobiosystems, GenScript)
T1 sequence (looked up): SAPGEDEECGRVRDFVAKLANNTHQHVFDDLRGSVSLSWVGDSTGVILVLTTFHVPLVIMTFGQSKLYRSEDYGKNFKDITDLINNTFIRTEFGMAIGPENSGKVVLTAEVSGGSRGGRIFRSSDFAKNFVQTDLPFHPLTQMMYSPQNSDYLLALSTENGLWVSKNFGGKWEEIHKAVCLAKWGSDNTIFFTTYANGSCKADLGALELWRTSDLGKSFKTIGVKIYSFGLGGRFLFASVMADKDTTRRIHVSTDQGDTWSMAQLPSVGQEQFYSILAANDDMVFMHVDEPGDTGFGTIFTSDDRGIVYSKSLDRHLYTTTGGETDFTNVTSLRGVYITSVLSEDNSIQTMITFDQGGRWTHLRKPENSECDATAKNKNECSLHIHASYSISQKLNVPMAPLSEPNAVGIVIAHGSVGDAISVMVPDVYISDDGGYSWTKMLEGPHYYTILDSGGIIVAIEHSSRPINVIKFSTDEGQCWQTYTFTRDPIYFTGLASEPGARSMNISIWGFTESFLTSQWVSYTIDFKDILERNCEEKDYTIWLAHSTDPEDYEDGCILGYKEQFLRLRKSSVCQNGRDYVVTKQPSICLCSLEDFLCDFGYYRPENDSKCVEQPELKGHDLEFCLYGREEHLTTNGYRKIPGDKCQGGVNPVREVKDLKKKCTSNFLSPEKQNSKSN


Assays:
[1] = CMC formulation buffer screen; format: physicochemical; settings: 0.5 mg/mL
Method: Exemplary conjugate agents (e.g., sortilin binding agents), referred to in the present Example as “peptide drug conjugates” or “PDCs” were assessed in a formulation screen to determine an appropriate vehicle for in vivo studies and to assess precipitation risk. PDC solutions were made up to 0.5 mg/mL in the following buffers: 25 mM Histidine 10% sucrose pH 7, 50 mM acetate/acetic acid, 10% sucrose pH 5, 1×PBS pH 7.4, Saline, 50 mM HEPES 10% sucrose pH 7. Solubility was assessed using a shake flask method and the test compound concentration of the filtrate was confirmed using HPLC-UV.
The following buffers were screened: 25 mM Histidine 10% sucrose pH 7, 50 mM acetate/acetic acid, 10% sucrose pH 5, 1×PBS pH 7.4, Saline, 50 mM HEPES 10% sucrose pH 7. The PDCs were soluble in all buffers tested (Table 1), and we proceed to use 25 mM Histidine, 10% sucrose pH 7 as our buffer of choice for our in vivo studies.

[2] = Murine plasma stability assay; format: in vitro ADME; settings: mouse, 2 μM, 37° C., read-out: Murine plasma stability assay, T1/2
Method: Frozen plasma was thawed at 37° C. and centrifuged at 4000 rpm to remove any clots and transferred to 96-well reaction plates by WuXi AppTec. Test compounds were added to the reaction plate at a final concentration of 2 μM and either stopped immediately or incubated at 37° C. for 5 minutes, 10 minutes, 30 minutes, 60 minutes, or 120 minutes. At the end of incubation, stop solution consisting of 200 ng/mL tolbutamide and 200 ng/mL labetalol in ACN was added to precipitate protein and mixed thoroughly. Samples were then transferred to a bioanalysis plate and shaken for 10 minutes prior to HPLC-MS/MS analysis of percent remaining compound.
Table 14 tabulates the plasma stability for each of the three PDCs tested.

[3] = Maximum tolerated dose (MTD) study; format: in vivo, mouse
Method: BALB/c Nude mice, female, 6-8 weeks, weighing approximately 18-22 g were purchased from the Shanghai SLAC Laboratory Animal Co., LTD. MTD studies were conducted at WuXi AppTec and the care and use of animals was conducted in accordance with the regulations of the Association for Assessment and Accreditation of Laboratory Animal Care (AAALAC). Two MTD studies were performed (a) a low dose study with doses ranging from 0.1, 0.5, 1 and 3 mg/kg and (b) a high dose study with doses ranging from 3, 5, 10 mg/kg. Dosing volume was determined based on body weight (10 ul/g) and PDCs were dissolved in 25 mM Histidine 10% sucrose pH 7 and administered i.v. at a single dose at day 0. The treatment and observation were conducted up to 7 days and MTD was defined by ≥20% body weight loss. Body weights were measured daily, death and observed clinical signs were recorded.
Doses of 3, 5, and 10 mg/kg were administered. MTD was defined by ≥20% body weight loss and body weight measured daily.

[4] = biological target: T1, Human SORT1 (78-755)-His; assay: SPR (Biacore 8K), SORT1 on CM5 chip, siRNA-peptide conjugate as analyte, 1:1 model

| Kd [4] [nM] | Molecule | result (buffer screening) ([1]; 25 mM Histidine 10% sucrose pH 7) | result (buffer screening) ([1]; 50 mM HEPES 10% sucrose pH 7) | result (buffer screening) ([1]; 50 mM acetate/acetic acid, 10% sucrose pH 5) | result (buffer screening) ([1]; 1x PBS pH 7.4) | result (buffer screening) ([1]; Saline) | half-life [2] [min] | sustained body weight loss ([3]; 5 mg/kg i.v. single dose, after 48 hrs, recovered at Day 7) [%] | toxicity ([3]; 10 mg/kg i.v. single dose) | body weight loss ([3]; 10 mg/kg i.v. single dose, after 48 hrs, BALB/c nude mice) |
| --- | --- | --- | --- | --- | --- | --- | --- | --- | --- | --- |
|  | CC[C@H](C)[C@@H]([C@@H](CC(=O)N1CCC[C@H]1[C@H](OC)[C@@H](C)C(=O)N[C@H](C)[C@@H](O)c1ccccc1)OC)N(C)C(=O)[C@@H](NC(=O)[C@H](C(C)C)N(C)C(=O)OCc1ccc(NC(=O)[C@H](CCCNC(N)=O)NC(=O)[C@@H](NC(=O)CCCC(=O)NCCC(=O)N(C)CC(=O)N(C)CC(=O)N(C)CC(=O)N(C)CC(=O)N[C@@H](C)C(=O)N2CCC[C@H]2C(=O)N[C@@H](CCCNC(=N)N)C(=O)N[C@@H](Cc2c[nH]c3ccccc23)C(=O)N[C@@H](CC(=O)O)C(=O)N[C@@H](C)C(=O)N2CCC[C@H]2C(=O)N[C@@H](CC(C)C)C(=O)N[C@@H](CCCNC(=N)N)C(=O)N[C@@H](CC(=O)O)C(=O)N2CCC[C@H]2C(=O)N[C@@H](C)C(=O)N[C@@H](CC(C)C)C(=O)N[C@@H](CCCNC(=N)N)C(=O)N[C@@H](CCC(N)=O)C(=O)N[C@@H](CC(C)C)C(=O)N[C@@H](CC(C)C)C(=O)O)C(C)C)cc1)C(C)C [PRGN_WT_PDC] | clear solution | clear solution | clear solution | clear solution | clear solution | 17.1 | ~15 | significant toxicity | greater than 20% |
| 108 | RWCENK([linker-siRNA])R[Nle]FTCRQ[Tle][tBuAla] (disulfide 3-11 (inferred); not fully specified; printed as RWCENKR(Nle)FTCRQ(B13)(F02); reading uncertain, also called SORT1 peptide 3 siRNA conjugate) [SORT1 peptide 3 conjugate] |  |  |  |  |  |  |  |  |  |
